Test results: article PMC3590144, “Determination of the Structure of the Catabolic N-Succinylornithine Transaminase (AstC) from Escherichia coli” (PLoS ONE, 2013)

Key:
Assay in all cases: purified protein
Conditions in all cases: PLP-reconstituted holo-enzyme, 200 µM alpha-ketoglutarate, 500 µM NAD+, 5 U GDH, 10 mM Tris-HCl pH 8.0
[1] = substrate: NCCC[C@H](N)C(=O)O
[2] = substrate: NCCC[C@H](NC(=O)CCC(=O)O)C(=O)O; format: biochemical, Escherichia coli
[3] = substrate: CC(=O)N[C@@H](CCCN)C(=O)O; format: biochemical, Escherichia coli

B1: AstC (Escherichia coli K-12) (protein)
chain: MSQPITRENFDEWMIPVYAPAPFIPVRGEGSRLWDQQGKEYIDFAGGIAVNALGHAHPELREALNEQASKFWHTGNGYTNEPVLRLAKKLIDATFADRVFFCNSGAEANEAALKLARKFAHDRYGSHKSGIVAFKNAFHGRTLFTVSAGGQPAYSQDFAPLPADIRHAAYNDINSASALIDDSTCAVIVEPIQGEGGVVPASNAFLQGLRELCNRHNALLIFDEVQTGVGRTGELYAYMHYGVTPDLLTTAKALGGGFPVGALLATEECARVMTVGTHGTTYGGNPLASAVAGKVLELINTPEMLNGVKQRHDWFVERLNTINHRYGLFSEVRGLGLLIGCVLNADYAGQAKQISQEAAKAGVMVLIAGGNVVRFAPALNVSEEEVTTGLDRFAAACEHFVSRGSS
notes: full-length, native untagged, no plasmid; purified from E. coli BL21(DE3) by Ni-NTA and size exclusion as apo-protein, reconstituted with PLP; about 406 residues; dimer
Km [1]: 4,391 µM | kcat [1]: 3.5 s⁻¹ | kcat/Km [1]: 797 M⁻¹ s⁻¹ | Km [2]: 284 µM | kcat [2]: 3 s⁻¹ | kcat/Km [2]: 10600 M⁻¹ s⁻¹ | Km [3]: 338 µM | kcat [3]: 4.7 s⁻¹ | kcat/Km [3]: 13900 M⁻¹ s⁻¹
